The test deals with VHH ALc-B8 expressed as thioredoxin fusion protein (alpaca). As to the kind of experiment: SPR. Background: In SPR one partner is held on a chip, and binding of the other changes the refractive index at the surface.

Broadly, the pKd is the negative decadic logarithm of the Kd, by convention in mol/L.

pKd: −log10 of the molar value.

Substance “recombinant BoNT/A protease (light chain), amino acids 1–448 of BoNT/A holotoxin (from UniProt P0DPI1 1-448) (enzyme)” had a pKd of 8.97.

Source of the values: article PMC2946066.
